Laboratory results as given in patent publication US20240182594A1.

Target: human OX40 (human) (UniProt P43489)
Experiment: cell-based or functional assay

UniProt P43489, sequence (P43489 29-277): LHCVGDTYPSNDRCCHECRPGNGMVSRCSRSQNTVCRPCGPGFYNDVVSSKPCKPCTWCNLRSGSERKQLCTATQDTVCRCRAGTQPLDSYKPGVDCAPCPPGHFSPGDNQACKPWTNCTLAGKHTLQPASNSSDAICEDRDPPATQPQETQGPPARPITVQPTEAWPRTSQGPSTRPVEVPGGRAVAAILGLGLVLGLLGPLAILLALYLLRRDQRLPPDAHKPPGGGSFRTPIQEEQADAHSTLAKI

Question: “soluble OX40 ligand (BPS Biosciences, Catalog #71185) (from UniProt P23510 51-183)” was tested. Which EC50 for T cell costimulation (proliferation of activated CD4+ Teff cells, CellTiter-Glo) did it give?
Answer: 14 µg/mL
